B1: Cold shock protein CspB, P41016 (parent)
chain: MQRGKVKWFNNEKGYGFIEVEGGSDVFVHFTAIQGEGFKTLEEGQEVSFEIVQGNRGPQAANVVKL

Variants of: B1
Settings: Bacillus caldolyticus, pH 7, Thermal, Na cacodylate/HCl 0.1 M, reversible: Yes, structure 1C9O, whole UniProt chain shown

Variant	ddG of mutation (higher = less stable) (75 °C, CD, NaCl 0-2 M) [kcal/mol]	heat capacity change of unfolding (75 °C, CD, NaCl 0-2 M) [kcal/mol/K]	ddG of mutation (higher = less stable) (75 °C, CD, NaCl 2 M) [kcal/mol]	heat capacity change of unfolding (75 °C, CD, NaCl 2 M) [kcal/mol/K]	ddG of mutation (higher = less stable) (75 °C, CD) [kcal/mol]	heat capacity change of unfolding (75 °C, CD) [kcal/mol/K]	Tm (CD) [°C]	change of melting temperature, mutant - wild type (higher = more stable) (CD) [°C]	heat capacity change of unfolding (CD) [kcal/mol/K]	unfolding enthalpy (van 't Hoff) (CD) [kcal/mol]	ddG of mutation (higher = less stable) (75 °C, DSC, NaCl 0-2 M) [kcal/mol]	heat capacity change of unfolding (75 °C, DSC, NaCl 0-2 M) [kcal/mol/K]	ddG of mutation (higher = less stable) (75 °C, DSC, NaCl 2 M) [kcal/mol]	heat capacity change of unfolding (75 °C, DSC, NaCl 2 M) [kcal/mol/K]	ddG of mutation (higher = less stable) (75 °C, DSC) [kcal/mol]	heat capacity change of unfolding (75 °C, DSC) [kcal/mol/K]	Tm (DSC) [°C]	change of melting temperature, mutant - wild type (higher = more stable) (DSC) [°C]	heat capacity change of unfolding (DSC) [kcal/mol/K]	unfolding enthalpy (calorimetric) (DSC) [kcal/mol]
E36K	0.98	0.96	-0.79	0.96	0.19	0.96	76	-0.9	0.96	45.6										
E21K	0.43	0.96	-0.17	0.96	0.26	0.96	75.4	-1.5	0.96	49										
E12K	0.1	0.96	0.29	0.96	0.43	0.96														
N55K	0.29	0.96	-0.19	0.96	-0.1	0.96	77.7	0.8	0.96	55.2										
E50K	0.76	0.96	-0.26	0.96	0.5	0.96	73.5	-3.4	0.96	43.3										
H29E											0.29	0.96	0.48	0.96	0.76	0.96				
R56E	-0.53	0.96	-0.24	0.96	-0.76	0.96														
E46K											0.43	0.96	0.22	0.96	0.65	0.96	74	-2.9	0.96	114

Source: FireProtDB (doi:10.1093/protein/gzl019)
